These results are taken from FireProtDB (doi:10.1021/bi982158q).

For the data set the following is noted: Bos taurus, pH 7, K2HPO4 5 mM, transition: 2, reversible: Yes, whole UniProt chain shown; for Tm: Thermal.

For orientation: Tm means the temperature at the midpoint of the melting transition.

B1: Cytochrome b5 wild type, P00171 (protein)
chain: MAEESSKAVKYYTLEEIQKHNNSKSTWLILHYKVYDLTKFLEEHPGGEEVLREQAGGDATENFEDVGHSTDARELSKTFIIGELHPDDRSKITKPSESIITTIDSNPSWWTNWLIPAISALFVALIYHLYTSEN
As to B1, where the note is “25 °C, Urea, Absorbance”, the denaturant m value amounted to 1.26 kcal/mol/M, the “denaturant midpoint (higher = more stable)” value turned out to be 6.9 M and the unfolding free energy is 8.7 kcal/mol. Further, the Tm (Absorbance) stood at 75.2 °C. Also, the Tm (Fluorescence) was 50.1 °C.
